This passage reports Relative cAMP EC50, cAMP Rel EC50 (in the presence of 1% HSA) and cAMP Rel EC50, nM (1% HSA) results from patent US20240270821A1, “GIP/GLP1/GCG TRI-RECEPTOR AGONISTS AND USES THEREOF” (priority 2023, published 2024).

The chains are these.
T1: human GIP receptor (human) (UniProt P48546)
T1 sequence (looked up): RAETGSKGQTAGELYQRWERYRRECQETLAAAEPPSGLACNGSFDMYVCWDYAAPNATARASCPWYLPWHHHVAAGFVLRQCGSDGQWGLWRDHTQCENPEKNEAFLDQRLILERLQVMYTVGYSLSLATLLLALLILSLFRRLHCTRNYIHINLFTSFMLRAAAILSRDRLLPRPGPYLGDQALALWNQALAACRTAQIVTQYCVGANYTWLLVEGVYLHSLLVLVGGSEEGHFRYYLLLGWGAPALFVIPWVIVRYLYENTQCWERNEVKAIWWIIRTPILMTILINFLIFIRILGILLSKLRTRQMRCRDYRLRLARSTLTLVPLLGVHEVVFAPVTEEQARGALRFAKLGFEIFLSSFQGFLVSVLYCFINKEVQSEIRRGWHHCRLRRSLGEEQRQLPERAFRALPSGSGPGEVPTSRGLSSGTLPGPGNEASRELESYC

B1: Example 35 (peptide)
chain: YXQGTFTSDFSKXLDKKAQXAFIEYLLEGGPSSGEPPPEEG
modifications: not fully specified; Aib, αMeL; acylated Lys; C-terminal amide; synthetic construct; SITE 2: note = 2-Aminoisobutyric Acid; SITE 13: note = alpha-methyl-leucine; SITE 17: note = Lysine is chemically modified through conjugation of the epsilon-amino group of the Lysine side chain with (2-[2-(2-Amino-ethoxy)-ethoxy]-acetyl)-(gamma-Glu)-CO-(CH2) 18-CO2H; SITE 20: n
B2: Example 36 (peptide)
chain: B1 chain with E39T
modifications: C-terminal amide; acylated lysine; synthetic construct; SITE 2: note = 2-Aminoisobutyric Acid; SITE 13: note = alpha-methyl-leucine; SITE 17: note = Lysine is chemically modified through conjugation of the epsilon-amino group of the Lysine side chain with (2-[2-(2-Amino-ethoxy)-ethoxy]-acetyl)-(gamma-Glu)-CO-(CH2) 18-CO2H; SITE 20: n
B3: Example 383 (peptide)
chain: YXQGTXTSDYSIXLDKKAAXAFIEYLIETGPSSGAPPPSEG
modifications: synthetic construct; SITE 2: note = 2-Aminoisobutyric Acid; SITE 6: note = alpha-methyl-2-fluoro-L-phenylalanine; SITE 13: note = alpha-methyl-leucine; SITE 17: note = Lysine is chemically modified through conjugation of the epsilon-amino group of the Lysine side chain with (2-[2-(2-Amino-ethoxy)-et)
B4: Example 398 (peptide)
chain: B3 chain with X13L, A19Q, I27E, T29G
modifications: not fully specified; synthetic construct; SITE 2: note = 2-Aminoisobutyric Acid; SITE 6: note = alpha-methyl-2-fluoro-L-phenylalanine; SITE 17: note = Lysine is chemically modified through conjugation of the epsilon-amino group of the Lysine side chain with (2-[2-(2-Amino-ethoxy)-ethoxy]-acetyl)-(gamma-Glu)-CO-(CH2) 16-
B5: Example 399 (peptide)
chain: B3 chain with X13L, A19Q, I27E, T29G, S39E
modifications: synthetic construct; SITE 2: note = 2-Aminoisobutyric Acid; SITE 6: note = alpha-methyl-2-fluoro-L-phenylalanine; SITE 17: note = Lysine is chemically modified through conjugation of the epsilon-amino group of the Lysine side chain with (2-[2-(2-Amino-ethoxy)-ethoxy]-acetyl)-(gamma-Glu)-CO-(CH2) 16-
B6: Example 395 (peptide)
chain: B3 chain with A19Q, I27E, T29G
modifications: synthetic construct; SITE 2: note = 2-Aminoisobutyric Acid; SITE 6: note = alpha-methyl-L-phenylalanine; SITE 13: note = alpha-methyl-leucine; SITE 17: note = Lysine is chemically modified through conjugation of the epsilon-amino group of the Lysine side chain with (2-[2-(2-Amino-ethoxy)-ethoxy]-ace)
B7: Example 381 (peptide)
chain: HXQGTXTSDYXIXLDXKAQXAFIEYLLEGGPSSGEPPPE
modifications: synthetic construct; SITE 2: note = 2-Aminoisobutyric Acid; SITE 6: note = alpha-methyl-2-fluoro-L-phenylalanine; SITE 11: note = alpha-methyl-L-serine; SITE 13: note = alpha-methyl-leucine; SITE 16: note = L-ornithine; SITE 17: note = Lysine is chemically modified through conjugation of the epsilon
B8: Example 384 (peptide)
chain: B7 chain with H1Y, A21X, E35A, E39S
modifications: synthetic construct; SITE 2: note = 2-Aminoisobutyric Acid; SITE 6: note = alpha-methyl-2-fluoro-L-phenylalanine; SITE 11: note = alpha-methyl-L-serine; SITE 13: note = alpha-methyl-leucine; SITE 16: note = L-ornithine; SITE 17: note = Lysine is chemically modified through conjugation of the epsilon
B9: Example 397 (peptide)
chain: B7 chain with H1Y, X11S, L27E, E35A
modifications: not fully specified; synthetic construct; SITE 2: note = 2-Aminoisobutyric Acid; SITE 6: note = alpha-methyl-L-phenylalanine; SITE 13: note = alpha-methyl-leucine; SITE 16: note = L-ornithine; SITE 17: note = Lysine is chemically modified through conjugation of the epsilon-amino group of the Lysine side chain with (2-[2)
B10: Example 382 (peptide)
chain: YXQGTFTSDYXIXLDKKAQXAFIEYLIEGGPSSGAPPPS
modifications: synthetic construct; SITE 2: note = 2-Aminoisobutyric Acid; SITE 11: note = alpha-methyl-L-serine; SITE 13: note = alpha-methyl-leucine; SITE 17: note = Lysine is chemically modified through conjugation of the epsilon-amino group of the Lysine side chain with (2-[2-(2-Amino-ethoxy)-ethoxy]-acetyl)2-
B11: Example 396 (peptide)
chain: B10 chain with F6X, X11S, I27E, S39E
modifications: synthetic construct; SITE 2: note = 2-Aminoisobutyric Acid; SITE 6: note = alpha-methyl-L-phenylalanine; SITE 13: note = alpha-methyl-leucine; SITE 17: note = Lysine is chemically modified through conjugation of the epsilon-amino group of the Lysine side chain with (2-[2-(2-Amino-ethoxy)-ethoxy]-ace)

Where a chain is given by its changes, count along the chain named.

Chain of human glucagon receptor (human) (P47871 26-477): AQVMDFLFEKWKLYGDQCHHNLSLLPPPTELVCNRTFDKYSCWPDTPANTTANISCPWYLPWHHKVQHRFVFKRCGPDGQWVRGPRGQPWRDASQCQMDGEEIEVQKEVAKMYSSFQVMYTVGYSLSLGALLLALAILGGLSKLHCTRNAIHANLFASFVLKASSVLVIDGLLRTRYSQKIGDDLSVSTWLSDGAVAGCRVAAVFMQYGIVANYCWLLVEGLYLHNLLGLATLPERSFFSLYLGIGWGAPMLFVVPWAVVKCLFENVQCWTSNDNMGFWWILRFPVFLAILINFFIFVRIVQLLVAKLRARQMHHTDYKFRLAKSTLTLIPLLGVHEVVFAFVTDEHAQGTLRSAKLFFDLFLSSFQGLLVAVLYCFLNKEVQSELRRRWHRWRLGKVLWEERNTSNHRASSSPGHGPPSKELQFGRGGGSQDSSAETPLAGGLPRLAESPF

One assay addresses T1, human GIP receptor (human). In words: cell-based or functional assay.
On to B1, for which the Relative cAMP EC50 was 0.55 nM and the cAMP Rel EC50 (in the presence of 1% HSA) turned out to be 194 nM.
In the same order, the values of B2 are 0.482 nM and 170 nM.
B3 showed a Relative cAMP EC50 of 0.0406 nM and a cAMP Rel EC50, nM (1% HSA) of 32.3 nM.
The matching figures for B4: 0.0318 nM and 12.4 nM.
The matching figures for B5: 0.0413 nM and 19.6 nM.
In the same order, the values of B6 are 0.0248 nM and 6.69 nM.
In turn, B7 returned a Relative cAMP EC50 of 0.0156 nM and a cAMP Rel EC50, nM (1% HSA) of 7.01 nM.
The matching figures for B8: 0.0152 nM and 3.63 nM.
The matching figures for B9: 0.0247 nM and 10.1 nM.
As to B10, the Relative cAMP EC50 came to 0.0368 nM and the cAMP Rel EC50, nM (1% HSA) amounted to 17.7 nM.
In the same order, the values of B11 are 0.024 nM and 9.5 nM.

A further assay addresses human glucagon receptor (human) (UniProt P47871). In words: cell-based or functional assay.
Regarding B1, the Relative cAMP EC50 is 4.32 nM and the cAMP Rel EC50 (in the presence of 1% HSA) came out at 1390 nM.
In the same order, the values of B2 are 4.32 nM and 1330 nM.
In turn, B3 returned a Relative cAMP EC50 of 1.27 nM and a cAMP Rel EC50, nM (1% HSA) of 530 nM.
As for B4, the Relative cAMP EC50 came out at 2.16 nM and the cAMP Rel EC50, nM (1% HSA) is 375 nM.
In the same order, the values of B5 are 1.51 nM and 560 nM.
B6 registered a Relative cAMP EC50 of 5.55 nM and a cAMP Rel EC50, nM (1% HSA) of 1190 nM.
The matching figures for B7: 1.39 nM and 176 nM.
In the same order, the values of B8 are 5.77 nM and 1730 nM.
The matching figures for B9: 5.22 nM and 1110 nM.
For the molecule B10, the Relative cAMP EC50 is 3.72 nM and the cAMP Rel EC50, nM (1% HSA) was 1050 nM.
Regarding B11, the Relative cAMP EC50 worked out at 4.99 nM and the cAMP Rel EC50, nM (1% HSA) came out at 468 nM.

A further assay deals with hGLP-1R (Homo sapiens, UniProt P43220). In words: cell-based or functional assay.
Chain of hGLP-1R (P43220 24-463): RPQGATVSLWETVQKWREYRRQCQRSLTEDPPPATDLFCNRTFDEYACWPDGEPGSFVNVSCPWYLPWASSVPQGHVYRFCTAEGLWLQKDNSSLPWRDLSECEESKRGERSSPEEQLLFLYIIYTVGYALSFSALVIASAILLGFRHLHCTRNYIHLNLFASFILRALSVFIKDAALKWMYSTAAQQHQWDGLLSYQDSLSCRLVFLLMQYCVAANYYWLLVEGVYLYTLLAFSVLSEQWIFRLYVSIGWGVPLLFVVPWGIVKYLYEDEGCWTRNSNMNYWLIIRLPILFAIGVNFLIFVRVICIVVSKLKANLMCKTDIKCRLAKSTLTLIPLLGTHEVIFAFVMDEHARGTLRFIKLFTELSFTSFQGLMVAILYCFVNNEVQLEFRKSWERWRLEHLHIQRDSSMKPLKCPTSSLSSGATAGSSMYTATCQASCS
Turning to B1, the Relative cAMP EC50 came out at 3.05 nM and the cAMP Rel EC50 (in the presence of 1% HSA) was determined as 1130 nM.
The matching figures for B2: 3.57 nM and 1360 nM.
B3 yielded a Relative cAMP EC50 of 0.258 nM and a cAMP Rel EC50, nM (1% HSA) of 79.1 nM.
For the molecule B4, the Relative cAMP EC50 was 0.186 nM and the cAMP Rel EC50, nM (1% HSA) was 42.2 nM.
In the same order, the values of B5 are 0.302 nM and 42.8 nM.
Turning to B6, the Relative cAMP EC50 was determined as 0.349 nM and the cAMP Rel EC50, nM (1% HSA) came to 34.7 nM.
B7: the Relative cAMP EC50 worked out at 0.157 nM and the cAMP Rel EC50, nM (1% HSA) was 24.5 nM.
In the same order, the values of B8 are 0.133 nM and 19.3 nM.
In the same order, the values of B9 are 0.2 nM and 34.9 nM.
The matching figures for B10: 0.291 nM and 61.5 nM.
Take B11: the Relative cAMP EC50 was found to be 0.293 nM and the cAMP Rel EC50, nM (1% HSA) stood at 38.2 nM.
